19 molecules from PMC7588459 (Scientific Reports, 2020) can be followed below.

B1: m102.4 VH K31A (antibody, V domains shown)
VH: EVQVIQSGADVKKPGSSVKVSCKSSGGTFSAYAINWVRQAPGQGLEWMGGIIPILGIANYAQKFQGRVTITTDESTSTAYMELSSLRSEDTAVYYCARGWGREQLAPHPSQYYYYYYGMDVWGQGTTVTVSS
VL: EIVMTQSPGTLSLAPGERATLSCWASQSVRNNYLAWYQQKPGQAPRLVIYNGSTRATGIPDRFSGSGSGTDFTLTISRLDPEDFAVYYCQQYGNSRRVTFGGGTKVEIK
B2: m102.4 VH G56A (antibody, V domains shown)
VH: EVQVIQSGADVKKPGSSVKVSCKSSGGTFSKYAINWVRQAPGQGLEWMGGIIPILAIANYAQKFQGRVTITTDESTSTAYMELSSLRSEDTAVYYCARGWGREQLAPHPSQYYYYYYGMDVWGQGTTVTVSS
VL: EIVMTQSPGTLSLAPGERATLSCWASQSVRNNYLAWYQQKPGQAPRLVIYNGSTRATGIPDRFSGSGSGTDFTLTISRLDPEDFAVYYCQQYGNSRRVTFGGGTKVEIK
B3: m102.4 VH R102A (antibody, V domains shown)
VH: EVQVIQSGADVKKPGSSVKVSCKSSGGTFSKYAINWVRQAPGQGLEWMGGIIPILGIANYAQKFQGRVTITTDESTSTAYMELSSLRSEDTAVYYCARGWGAEQLAPHPSQYYYYYYGMDVWGQGTTVTVSS
VL: EIVMTQSPGTLSLAPGERATLSCWASQSVRNNYLAWYQQKPGQAPRLVIYNGSTRATGIPDRFSGSGSGTDFTLTISRLDPEDFAVYYCQQYGNSRRVTFGGGTKVEIK
B4: m102.4 VL R30A (antibody, V domains shown)
VH: EVQVIQSGADVKKPGSSVKVSCKSSGGTFSKYAINWVRQAPGQGLEWMGGIIPILGIANYAQKFQGRVTITTDESTSTAYMELSSLRSEDTAVYYCARGWGREQLAPHPSQYYYYYYGMDVWGQGTTVTVSS
VL: EIVMTQSPGTLSLAPGERATLSCWASQSVANNYLAWYQQKPGQAPRLVIYNGSTRATGIPDRFSGSGSGTDFTLTISRLDPEDFAVYYCQQYGNSRRVTFGGGTKVEIK
notes: also called LC:R30 to alanine
B5: m102.4 VH Q104A (antibody, V domains shown)
VH: EVQVIQSGADVKKPGSSVKVSCKSSGGTFSKYAINWVRQAPGQGLEWMGGIIPILGIANYAQKFQGRVTITTDESTSTAYMELSSLRSEDTAVYYCARGWGREALAPHPSQYYYYYYGMDVWGQGTTVTVSS
VL: EIVMTQSPGTLSLAPGERATLSCWASQSVRNNYLAWYQQKPGQAPRLVIYNGSTRATGIPDRFSGSGSGTDFTLTISRLDPEDFAVYYCQQYGNSRRVTFGGGTKVEIK
B6: m102.4 VH Y112A (antibody, V domains shown)
VH: EVQVIQSGADVKKPGSSVKVSCKSSGGTFSKYAINWVRQAPGQGLEWMGGIIPILGIANYAQKFQGRVTITTDESTSTAYMELSSLRSEDTAVYYCARGWGREQLAPHPSQAYYYYYGMDVWGQGTTVTVSS
VL: EIVMTQSPGTLSLAPGERATLSCWASQSVRNNYLAWYQQKPGQAPRLVIYNGSTRATGIPDRFSGSGSGTDFTLTISRLDPEDFAVYYCQQYGNSRRVTFGGGTKVEIK
B7: m102.4 VH H108A (antibody, V domains shown)
VH: EVQVIQSGADVKKPGSSVKVSCKSSGGTFSKYAINWVRQAPGQGLEWMGGIIPILGIANYAQKFQGRVTITTDESTSTAYMELSSLRSEDTAVYYCARGWGREQLAPAPSQYYYYYYGMDVWGQGTTVTVSS
VL: EIVMTQSPGTLSLAPGERATLSCWASQSVRNNYLAWYQQKPGQAPRLVIYNGSTRATGIPDRFSGSGSGTDFTLTISRLDPEDFAVYYCQQYGNSRRVTFGGGTKVEIK
B8: m102.4 VH S110A (antibody, V domains shown)
VH: EVQVIQSGADVKKPGSSVKVSCKSSGGTFSKYAINWVRQAPGQGLEWMGGIIPILGIANYAQKFQGRVTITTDESTSTAYMELSSLRSEDTAVYYCARGWGREQLAPHPAQYYYYYYGMDVWGQGTTVTVSS
VL: EIVMTQSPGTLSLAPGERATLSCWASQSVRNNYLAWYQQKPGQAPRLVIYNGSTRATGIPDRFSGSGSGTDFTLTISRLDPEDFAVYYCQQYGNSRRVTFGGGTKVEIK
B9: m102.4 VH L55A (antibody, V domains shown)
VH: EVQVIQSGADVKKPGSSVKVSCKSSGGTFSKYAINWVRQAPGQGLEWMGGIIPIAGIANYAQKFQGRVTITTDESTSTAYMELSSLRSEDTAVYYCARGWGREQLAPHPSQYYYYYYGMDVWGQGTTVTVSS
VL: EIVMTQSPGTLSLAPGERATLSCWASQSVRNNYLAWYQQKPGQAPRLVIYNGSTRATGIPDRFSGSGSGTDFTLTISRLDPEDFAVYYCQQYGNSRRVTFGGGTKVEIK
B10: m102.4 VH L105A (antibody, V domains shown)
VH: EVQVIQSGADVKKPGSSVKVSCKSSGGTFSKYAINWVRQAPGQGLEWMGGIIPILGIANYAQKFQGRVTITTDESTSTAYMELSSLRSEDTAVYYCARGWGREQAAPHPSQYYYYYYGMDVWGQGTTVTVSS
VL: EIVMTQSPGTLSLAPGERATLSCWASQSVRNNYLAWYQQKPGQAPRLVIYNGSTRATGIPDRFSGSGSGTDFTLTISRLDPEDFAVYYCQQYGNSRRVTFGGGTKVEIK
B11: m102.4 VH E103A (antibody, V domains shown)
VH: EVQVIQSGADVKKPGSSVKVSCKSSGGTFSKYAINWVRQAPGQGLEWMGGIIPILGIANYAQKFQGRVTITTDESTSTAYMELSSLRSEDTAVYYCARGWGRAQLAPHPSQYYYYYYGMDVWGQGTTVTVSS
VL: EIVMTQSPGTLSLAPGERATLSCWASQSVRNNYLAWYQQKPGQAPRLVIYNGSTRATGIPDRFSGSGSGTDFTLTISRLDPEDFAVYYCQQYGNSRRVTFGGGTKVEIK
B12: m102.4 VH I57A (antibody, V domains shown)
VH: EVQVIQSGADVKKPGSSVKVSCKSSGGTFSKYAINWVRQAPGQGLEWMGGIIPILGAANYAQKFQGRVTITTDESTSTAYMELSSLRSEDTAVYYCARGWGREQLAPHPSQYYYYYYGMDVWGQGTTVTVSS
VL: EIVMTQSPGTLSLAPGERATLSCWASQSVRNNYLAWYQQKPGQAPRLVIYNGSTRATGIPDRFSGSGSGTDFTLTISRLDPEDFAVYYCQQYGNSRRVTFGGGTKVEIK
B13: m102.4 VH I54A (antibody, V domains shown)
VH: EVQVIQSGADVKKPGSSVKVSCKSSGGTFSKYAINWVRQAPGQGLEWMGGIIPALGIANYAQKFQGRVTITTDESTSTAYMELSSLRSEDTAVYYCARGWGREQLAPHPSQYYYYYYGMDVWGQGTTVTVSS
VL: EIVMTQSPGTLSLAPGERATLSCWASQSVRNNYLAWYQQKPGQAPRLVIYNGSTRATGIPDRFSGSGSGTDFTLTISRLDPEDFAVYYCQQYGNSRRVTFGGGTKVEIK
B14: m102.4 VH Y114A (antibody, V domains shown)
VH: EVQVIQSGADVKKPGSSVKVSCKSSGGTFSKYAINWVRQAPGQGLEWMGGIIPILGIANYAQKFQGRVTITTDESTSTAYMELSSLRSEDTAVYYCARGWGREQLAPHPSQYYAYYYGMDVWGQGTTVTVSS
VL: EIVMTQSPGTLSLAPGERATLSCWASQSVRNNYLAWYQQKPGQAPRLVIYNGSTRATGIPDRFSGSGSGTDFTLTISRLDPEDFAVYYCQQYGNSRRVTFGGGTKVEIK
B15: m102.4 VH Y113A (antibody, V domains shown)
VH: EVQVIQSGADVKKPGSSVKVSCKSSGGTFSKYAINWVRQAPGQGLEWMGGIIPILGIANYAQKFQGRVTITTDESTSTAYMELSSLRSEDTAVYYCARGWGREQLAPHPSQYAYYYYGMDVWGQGTTVTVSS
VL: EIVMTQSPGTLSLAPGERATLSCWASQSVRNNYLAWYQQKPGQAPRLVIYNGSTRATGIPDRFSGSGSGTDFTLTISRLDPEDFAVYYCQQYGNSRRVTFGGGTKVEIK
B16: m102.4 VH A106W (antibody, V domains shown)
VH: EVQVIQSGADVKKPGSSVKVSCKSSGGTFSKYAINWVRQAPGQGLEWMGGIIPILGIANYAQKFQGRVTITTDESTSTAYMELSSLRSEDTAVYYCARGWGREQLWPHPSQYYYYYYGMDVWGQGTTVTVSS
VL: EIVMTQSPGTLSLAPGERATLSCWASQSVRNNYLAWYQQKPGQAPRLVIYNGSTRATGIPDRFSGSGSGTDFTLTISRLDPEDFAVYYCQQYGNSRRVTFGGGTKVEIK
B17: m102.4 VH Q111A (antibody, V domains shown)
VH: EVQVIQSGADVKKPGSSVKVSCKSSGGTFSKYAINWVRQAPGQGLEWMGGIIPILGIANYAQKFQGRVTITTDESTSTAYMELSSLRSEDTAVYYCARGWGREQLAPHPSAYYYYYYGMDVWGQGTTVTVSS
VL: EIVMTQSPGTLSLAPGERATLSCWASQSVRNNYLAWYQQKPGQAPRLVIYNGSTRATGIPDRFSGSGSGTDFTLTISRLDPEDFAVYYCQQYGNSRRVTFGGGTKVEIK
B18: m102.4 VH P107A (antibody, V domains shown)
VH: EVQVIQSGADVKKPGSSVKVSCKSSGGTFSKYAINWVRQAPGQGLEWMGGIIPILGIANYAQKFQGRVTITTDESTSTAYMELSSLRSEDTAVYYCARGWGREQLAAHPSQYYYYYYGMDVWGQGTTVTVSS
VL: EIVMTQSPGTLSLAPGERATLSCWASQSVRNNYLAWYQQKPGQAPRLVIYNGSTRATGIPDRFSGSGSGTDFTLTISRLDPEDFAVYYCQQYGNSRRVTFGGGTKVEIK
B19: m102.4 VH P109A (antibody, V domains shown)
VH: EVQVIQSGADVKKPGSSVKVSCKSSGGTFSKYAINWVRQAPGQGLEWMGGIIPILGIANYAQKFQGRVTITTDESTSTAYMELSSLRSEDTAVYYCARGWGREQLAPHASQYYYYYYGMDVWGQGTTVTVSS
VL: EIVMTQSPGTLSLAPGERATLSCWASQSVRNNYLAWYQQKPGQAPRLVIYNGSTRATGIPDRFSGSGSGTDFTLTISRLDPEDFAVYYCQQYGNSRRVTFGGGTKVEIK

The target of the assay is T1, Nipah virus attachment (receptor-binding) glycoprotein (GP), wild type (Nipah virus; strain of the assayed …, UniProt Q9IH62).
T1 construct: source: HEK 293-F FreeStyle, transiently transfected, purified from supernatant (Ni-NTA)
Kind of assay: ELISA. Conditions: both partners purified. In general terms: ELISA stands for enzyme-linked immunosorbent assay.
A word on the Kd: it is the constant that tells how readily two partners part at equilibrium. A lower Kd goes with a tighter complex. In turn, B1 gave a Kd of 0.08 nM. This counts as picomolar.
In the case of B2 it was 0.09 nM; in that of B3, 0.09 nM.
In turn, B4 returned a Kd of 0.13 nM.
Next, B5: 0.1 nM; B6: 0.11 nM; B7: 0.09 nM.
In turn, B8 had a Kd of 0.13 nM.
In the case of B9 it was 0.1 nM; in that of B10, 0.1 nM.
Consider B11, for which the Kd amounted to 1.83 nM.
In the case of B12 it was 0.1 nM.
In the case of B13 it was 0.13 nM; in that of B14, 0.07 nM; in that of B15, 0.12 nM.
In turn, B16 displayed a Kd of 4.95 nM. Compared with the last molecule, the Kd is about 41-fold higher.
Next, B17: 0.08 nM.
Next, B18: 0.09 nM; B19: 0.1 nM.
